{"source": "patent EP4484441A1", "about": "(Eberhard-Karls-Universität Tübingen, dated 2025)", "biological_target": "T1, polypeptide 10 (human)", "T1 construct": "The empty single-chain polypeptide as secreted by WEHI-231 cells, about 50 kD; also called MHC-derived polypeptide; single continuous amino acid chain 12", "T1 sequence (chain, as listed by the source limits assumed)": "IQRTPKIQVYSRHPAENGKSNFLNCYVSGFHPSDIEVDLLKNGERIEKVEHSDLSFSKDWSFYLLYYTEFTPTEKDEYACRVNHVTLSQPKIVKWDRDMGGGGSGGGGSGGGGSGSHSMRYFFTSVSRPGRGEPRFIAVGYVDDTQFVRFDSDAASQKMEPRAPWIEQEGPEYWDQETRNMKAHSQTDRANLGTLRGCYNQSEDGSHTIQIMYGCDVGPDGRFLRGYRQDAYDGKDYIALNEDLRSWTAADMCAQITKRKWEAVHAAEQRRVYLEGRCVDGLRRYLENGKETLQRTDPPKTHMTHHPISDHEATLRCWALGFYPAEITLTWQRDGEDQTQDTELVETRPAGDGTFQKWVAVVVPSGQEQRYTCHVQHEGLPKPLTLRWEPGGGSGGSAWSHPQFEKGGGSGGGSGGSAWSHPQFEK", "experiment": "inferred from peptide-dependent multimer staining of TCR-expressing Jurkat76 cells (flow cytometry)"}
{"binder": "LTDLGQNLLY", "note": "[oligopeptide 26]", "values": [{"measurement": "binding result", "result": "binds"}]}
